Laboratory results from PMC5795435.

Legend:
Assay in all cases: cryo-EM structure
[1] = target: Bufavirus 1 (BuV1) VP2, assembled as virus-like particles (Bufavirus 1 (BuV1))
[2] = target: Bufavirus 2 (BuV2) VP2, assembled as virus-like particles (Bufavirus 2 (BuV2))
[3] = target: Bufavirus 3 (BuV3) VP2, assembled as virus-like particles (Bufavirus 3 (BuV3))

Q: Which stoichiometry N [1] does the source give for “Bufavirus 1 (BuV1) VP2, assembled as virus-like particles (natural protein)” here?
A: Its stoichiometry N is 60.

Q: “Bufavirus 2 (BuV2) VP2, assembled as virus-like particles (natural protein)” was tested. Which stoichiometry N [2] did it give?
A: The stoichiometry N was 60.

Q: Which stoichiometry N [3] does the source give for “Bufavirus 3 (BuV3) VP2, assembled as virus-like particles (natural protein)” here?
A: The stoichiometry N was 60.
